Laboratory results from patent US20250161408A1, “PEPTIDIC INHIBITORS OF AMYLOID SELF- AND CROSS-ASSEMBLY” (published 2025).
Non-standard residues stand in square brackets, D forms with d. NMeF = CN[C@@H](Cc1ccccc1)C(=O)O; NMeL = CN[C@@H](CC(C)C)C(=O)O; NMeV = CN[C@H](C(=O)O)C(C)C; Nle = CCCC[C@H](N)C(=O)O

Tests used:
[1] = target: FITC-Aβ42 (Homo sapiens (Human), UniProt P05067, N-terminal fluorescein-isothiocyanate-β-Ala); experiment: fluorescence spectroscopic titration of FITC-Aβ42 (5 nM, pH 7.4) with the ACM; app. KD
Protocol: (§1) Fluorescence spectroscopic studies were performed with a Jasco FP-6500 fluorescence spectrophotometer. Briefly, excitation was at 492 nm and spectra were measured between 500 and 600 nm. All titrations were performed in freshly made solutions of synthetic N-terminal fluorescently labeled peptide (5 nM) and various amounts of unlabeled peptide in 10 mM sodium phosphate buffer, pH 7.4 (1% HFIP) within 2-5 min following solution preparation. […] Apparent binding affinities (app. KDs) were estimated by using 1/1 binding models. However, due to the high self-assembly propensities of involved peptides more complex models might also apply.

[2] = target: T1, Fluos-IAPP (human, UniProt P10997, N-terminal fluorescein); experiment: fluorescence spectroscopic titration of Fluos-IAPP (5 nM, pH 7.4) with the ACM; app. KD
T1 peptide: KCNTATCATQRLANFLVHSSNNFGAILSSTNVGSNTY
Protocol: On the right side of each figure panel, the corresponding binding curves are shown; data are means±SD from 3 binding curves. […] KDs (means±SD from 3 binding curves) are in Table 1.
as §1, with “apply. […] KDs are means (±SD) from three binding curves derived from three independent titration assays.” for “apply.”

[3] = target: T2, Fluos-Nle3-VF (N-terminal 5,6-carboxyfluorescein; X = norleucine (Nle); N-methyl on Val18 and Phe20); experiment: self-assembly: fluorescence spectroscopic titration of Fluos-Nle3-VF (5 nM) with Nle3-VF; app. KD
T2 peptide: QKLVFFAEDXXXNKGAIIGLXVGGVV
Protocol: as §1, with “apply. […] KDs are means (±SD) from three binding curves derived from three independent titration assays.” for “apply.”

B1: Nle3-LF (peptide)
peptide: H-QK[NMeL]V[NMeF]FAED[Nle][Nle][Nle]NKGAIIGL[Nle]VGGVV-OH
SMILES: CCCC[C@H](NC(=O)[C@H](CC(=O)O)NC(=O)[C@H](CCC(=O)O)NC(=O)[C@H](C)NC(=O)[C@H](Cc1ccccc1)NC(=O)[C@H](Cc1ccccc1)N(C)C(=O)[C@@H](NC(=O)[C@H](CC(C)C)N(C)C(=O)[C@H](CCCCN)NC(=O)[C@@H](N)CCC(N)=O)C(C)C)C(=O)N[C@@H](CCCC)C(=O)N[C@@H](CCCC)C(=O)N[C@@H](CC(N)=O)C(=O)N[C@@H](CCCCN)C(=O)NCC(=O)N[C@@H](C)C(=O)N[C@H](C(=O)N[C@H](C(=O)NCC(=O)N[C@@H](CC(C)C)C(=O)N[C@@H](CCCC)C(=O)N[C@H](C(=O)NCC(=O)NCC(=O)N[C@H](C(=O)N[C@H](C(=O)O)C(C)C)C(C)C)C(C)C)[C@@H](C)CC)[C@@H](C)CC
Kd [1]: 0.0111 µM | Kd [2]: 0.0554 µM

B2: Nle3-VF (peptide)
peptide: H-QKL[NMeV]F[NMeF]AED[Nle][Nle][Nle]NKGAIIGL[Nle]VGGVV-OH
SMILES: CCCC[C@H](NC(=O)[C@H](CC(=O)O)NC(=O)[C@H](CCC(=O)O)NC(=O)[C@H](C)NC(=O)[C@H](Cc1ccccc1)N(C)C(=O)[C@H](Cc1ccccc1)NC(=O)[C@H](C(C)C)N(C)C(=O)[C@H](CC(C)C)NC(=O)[C@H](CCCCN)NC(=O)[C@@H](N)CCC(N)=O)C(=O)N[C@@H](CCCC)C(=O)N[C@@H](CCCC)C(=O)N[C@@H](CC(N)=O)C(=O)N[C@@H](CCCCN)C(=O)NCC(=O)N[C@@H](C)C(=O)N[C@H](C(=O)N[C@H](C(=O)NCC(=O)N[C@@H](CC(C)C)C(=O)N[C@@H](CCCC)C(=O)N[C@H](C(=O)NCC(=O)NCC(=O)N[C@H](C(=O)N[C@H](C(=O)O)C(C)C)C(C)C)C(C)C)[C@@H](C)CC)[C@@H](C)CC
Kd [3]: 0.0519 µM | Kd [1]: 0.0145 µM | Kd [2]: 0.0695 µM

B3: F3-LF (peptide)
peptide: H-QK[NMeL]V[NMeF]FAEDFFFNKGAIIGL[Nle]VGGVV-OH
SMILES: CCCC[C@H](NC(=O)[C@H](CC(C)C)NC(=O)CNC(=O)[C@@H](NC(=O)[C@@H](NC(=O)[C@H](C)NC(=O)CNC(=O)[C@H](CCCCN)NC(=O)[C@H](CC(N)=O)NC(=O)[C@H](Cc1ccccc1)NC(=O)[C@H](Cc1ccccc1)NC(=O)[C@H](Cc1ccccc1)NC(=O)[C@H](CC(=O)O)NC(=O)[C@H](CCC(=O)O)NC(=O)[C@H](C)NC(=O)[C@H](Cc1ccccc1)NC(=O)[C@H](Cc1ccccc1)N(C)C(=O)[C@@H](NC(=O)[C@H](CC(C)C)N(C)C(=O)[C@H](CCCCN)NC(=O)[C@@H](N)CCC(N)=O)C(C)C)[C@@H](C)CC)[C@@H](C)CC)C(=O)N[C@H](C(=O)NCC(=O)NCC(=O)N[C@H](C(=O)N[C@H](C(=O)O)C(C)C)C(C)C)C(C)C
Kd [1]: 0.431 µM | Kd [2]: 0.0376 µM

B4: F3-VF (peptide)
peptide: H-QKL[NMeV]F[NMeF]AEDFFFNKGAIIGL[Nle]VGGVV-OH
SMILES: CCCC[C@H](NC(=O)[C@H](CC(C)C)NC(=O)CNC(=O)[C@@H](NC(=O)[C@@H](NC(=O)[C@H](C)NC(=O)CNC(=O)[C@H](CCCCN)NC(=O)[C@H](CC(N)=O)NC(=O)[C@H](Cc1ccccc1)NC(=O)[C@H](Cc1ccccc1)NC(=O)[C@H](Cc1ccccc1)NC(=O)[C@H](CC(=O)O)NC(=O)[C@H](CCC(=O)O)NC(=O)[C@H](C)NC(=O)[C@H](Cc1ccccc1)N(C)C(=O)[C@H](Cc1ccccc1)NC(=O)[C@H](C(C)C)N(C)C(=O)[C@H](CC(C)C)NC(=O)[C@H](CCCCN)NC(=O)[C@@H](N)CCC(N)=O)[C@@H](C)CC)[C@@H](C)CC)C(=O)N[C@H](C(=O)NCC(=O)NCC(=O)N[C@H](C(=O)N[C@H](C(=O)O)C(C)C)C(C)C)C(C)C
Kd [1]: 0.161 µM | Kd [2]: 0.015 µM

B5: L3-VF (peptide)
peptide: H-QKL[NMeV]F[NMeF]AEDLLLNKGAIIGL[Nle]VGGVV-OH
SMILES: CCCC[C@H](NC(=O)[C@H](CC(C)C)NC(=O)CNC(=O)[C@@H](NC(=O)[C@@H](NC(=O)[C@H](C)NC(=O)CNC(=O)[C@H](CCCCN)NC(=O)[C@H](CC(N)=O)NC(=O)[C@H](CC(C)C)NC(=O)[C@H](CC(C)C)NC(=O)[C@H](CC(C)C)NC(=O)[C@H](CC(=O)O)NC(=O)[C@H](CCC(=O)O)NC(=O)[C@H](C)NC(=O)[C@H](Cc1ccccc1)N(C)C(=O)[C@H](Cc1ccccc1)NC(=O)[C@H](C(C)C)N(C)C(=O)[C@H](CC(C)C)NC(=O)[C@H](CCCCN)NC(=O)[C@@H](N)CCC(N)=O)[C@@H](C)CC)[C@@H](C)CC)C(=O)N[C@H](C(=O)NCC(=O)NCC(=O)N[C@H](C(=O)N[C@H](C(=O)O)C(C)C)C(C)C)C(C)C
Kd [1]: 0.038 µM | Kd [2]: 0.0773 µM

B6: L3-LF (peptide)
peptide: H-QK[NMeL]V[NMeF]FAEDLLLNKGAIIGL[Nle]VGGVV-OH
SMILES: CCCC[C@H](NC(=O)[C@H](CC(C)C)NC(=O)CNC(=O)[C@@H](NC(=O)[C@@H](NC(=O)[C@H](C)NC(=O)CNC(=O)[C@H](CCCCN)NC(=O)[C@H](CC(N)=O)NC(=O)[C@H](CC(C)C)NC(=O)[C@H](CC(C)C)NC(=O)[C@H](CC(C)C)NC(=O)[C@H](CC(=O)O)NC(=O)[C@H](CCC(=O)O)NC(=O)[C@H](C)NC(=O)[C@H](Cc1ccccc1)NC(=O)[C@H](Cc1ccccc1)N(C)C(=O)[C@@H](NC(=O)[C@H](CC(C)C)N(C)C(=O)[C@H](CCCCN)NC(=O)[C@@H](N)CCC(N)=O)C(C)C)[C@@H](C)CC)[C@@H](C)CC)C(=O)N[C@H](C(=O)NCC(=O)NCC(=O)N[C@H](C(=O)N[C@H](C(=O)O)C(C)C)C(C)C)C(C)C
Kd [1]: 0.0026 µM | Kd [2]: 0.143 µM
